In test [1] the target is T1, mB7-H4 (soluble mouse B7-H4, construct not named) (mouse, UniProt Q7TSP5 25-257, limits assumed).
T1 sequence: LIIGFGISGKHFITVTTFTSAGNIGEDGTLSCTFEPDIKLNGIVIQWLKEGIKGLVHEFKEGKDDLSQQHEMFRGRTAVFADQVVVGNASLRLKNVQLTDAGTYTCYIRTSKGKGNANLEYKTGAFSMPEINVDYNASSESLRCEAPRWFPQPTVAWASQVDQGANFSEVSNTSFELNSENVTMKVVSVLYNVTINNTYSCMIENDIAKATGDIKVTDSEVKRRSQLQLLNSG
Put plainly: ELISA, mB7-H4. The procedure:
(§1) About 1-2 μg/ml of human or mouse B7-H4-Fc (or his-tagged) was immobilized on ELISA plates (Immuno 2HB, Thermo scientific, cat #3455) at 4° C. overnight. After blocking the plates with 3% PBS+milk, serial diluted antibodies were added to the blocked plates and incubated at RT for 1-1.5 h. After washing the plates with PBS-T (0.05%), horse radish peroxidase (HRP)-conjugated antibody targeting the hFab was added to the plate. Signals were developed by adding 3,3′,5,5′-Tetramethylbenzidine (TMB (followed 1N of H₂SO₄ to stop the reaction. The OD at 450 nm was read by ELISA plate reader (Infinite M1000 from TECAN). GraphPad from Prism was used to plot OD450 vs. antibody concentration curve and to calculate the EC50 values.
(An ELISA detects its analyte on a solid surface through an enzyme-linked reagent.)

For test [2], the target named is T2, hB7-H4 (soluble human B7-H4, construct not named) (human, UniProt Q7Z7D3 25-259, limits assumed).
T2 construct: also called soluble hB7-H4
T2 sequence: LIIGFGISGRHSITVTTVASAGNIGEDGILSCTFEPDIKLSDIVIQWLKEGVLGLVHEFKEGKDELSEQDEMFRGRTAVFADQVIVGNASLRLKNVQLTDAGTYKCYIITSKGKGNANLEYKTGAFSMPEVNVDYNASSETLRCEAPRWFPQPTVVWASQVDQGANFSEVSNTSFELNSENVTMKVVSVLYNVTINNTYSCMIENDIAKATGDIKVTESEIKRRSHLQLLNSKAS
Put plainly: SPR (Biacore). Background: In SPR one partner is held on a chip, and binding of the other changes the refractive index at the surface.

In test [3] the target is T3, IgV domain of mouse B7-H4-Fc (mouse; human).
T3 construct: also called mB7-H4 IgV domain
T3 sequence (chain, as listed by the source): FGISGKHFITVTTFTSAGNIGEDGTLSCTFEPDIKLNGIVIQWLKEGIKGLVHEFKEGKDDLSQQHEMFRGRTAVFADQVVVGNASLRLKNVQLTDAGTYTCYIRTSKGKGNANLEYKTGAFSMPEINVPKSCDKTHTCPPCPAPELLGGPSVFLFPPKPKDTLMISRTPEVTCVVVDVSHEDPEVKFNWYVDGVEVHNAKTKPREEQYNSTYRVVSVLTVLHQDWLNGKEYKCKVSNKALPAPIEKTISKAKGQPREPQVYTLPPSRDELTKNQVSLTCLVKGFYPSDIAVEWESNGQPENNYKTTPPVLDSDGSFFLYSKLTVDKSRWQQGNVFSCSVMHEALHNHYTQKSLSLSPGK
Nature of the test: ELISA on coated IgV domain of mB7-H4.

Test [4] deals with T4, IgC domain of human B7-H4-Fc (human).
T4 construct: also called hB7-H4 IgC domain
T4 sequence (chain, as listed by the source): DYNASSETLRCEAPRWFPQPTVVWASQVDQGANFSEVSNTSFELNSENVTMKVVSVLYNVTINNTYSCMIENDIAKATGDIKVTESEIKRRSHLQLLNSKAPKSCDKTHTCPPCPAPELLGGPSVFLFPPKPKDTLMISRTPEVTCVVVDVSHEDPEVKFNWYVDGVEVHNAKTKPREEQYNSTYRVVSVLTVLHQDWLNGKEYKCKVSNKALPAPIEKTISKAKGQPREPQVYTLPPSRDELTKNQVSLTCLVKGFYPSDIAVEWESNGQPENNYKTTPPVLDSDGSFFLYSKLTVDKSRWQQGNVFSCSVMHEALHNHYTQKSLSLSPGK
Put plainly: ELISA, coated hB7-H4 IgC domain.

In test [5] the target is T5, human B7-H4-Fc (human).
T5 construct: also called hB7-H4-Fc; hB7-H4 Fc
T5 sequence (chain, as listed by the source): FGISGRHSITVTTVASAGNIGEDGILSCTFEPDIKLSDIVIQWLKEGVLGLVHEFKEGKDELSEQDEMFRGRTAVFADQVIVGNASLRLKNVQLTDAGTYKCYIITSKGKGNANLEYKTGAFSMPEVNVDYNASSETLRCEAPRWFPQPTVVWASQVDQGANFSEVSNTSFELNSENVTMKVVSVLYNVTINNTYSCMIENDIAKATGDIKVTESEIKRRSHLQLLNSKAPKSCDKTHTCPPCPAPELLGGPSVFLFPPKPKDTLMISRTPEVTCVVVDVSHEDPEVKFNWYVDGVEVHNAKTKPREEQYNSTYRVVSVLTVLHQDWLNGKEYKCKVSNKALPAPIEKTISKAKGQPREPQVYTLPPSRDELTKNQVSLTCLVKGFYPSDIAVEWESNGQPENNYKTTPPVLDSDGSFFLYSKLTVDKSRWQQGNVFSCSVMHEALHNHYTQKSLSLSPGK
Put plainly: SPR (Biacore). The method, boiled down: (§2)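 Kinetic constants came from a 1:1 Langmuir fit of binding at 25 °C in HBS-EP, pH 7.4. Analyte (100 nM to 0.1 nM) flowed for 180 s, then dissociated for 1000 or 1200 s, over amine-coupled human B7-H4-Fc, human B7-H4-his or mouse B7-H4-Fc surfaces at 50-100 RU.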

The target in test [6] is T6, human B7-H4-his (human, UniProt Q7Z7D3 25-259).
T6 construct: also called hB7-H4-his; hB7-H4 his; not shown: his tag
T6 sequence: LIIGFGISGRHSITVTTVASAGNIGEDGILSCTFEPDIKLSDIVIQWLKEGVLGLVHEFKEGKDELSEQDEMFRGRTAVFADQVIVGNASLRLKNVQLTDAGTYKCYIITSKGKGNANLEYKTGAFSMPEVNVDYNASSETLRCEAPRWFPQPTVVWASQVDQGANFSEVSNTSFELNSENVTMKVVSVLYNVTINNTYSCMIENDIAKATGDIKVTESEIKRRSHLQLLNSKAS
Put plainly: SPR (Biacore). The method in brief: as §2

Test [7] has as its target T7, human B7-H4 expressed on cells (human, UniProt Q7Z7D3 25-282).
T7 construct: Transfected CHO cells or tumor cell lines that carry hB7-H4; also called cellular hB7-H4
T7 sequence: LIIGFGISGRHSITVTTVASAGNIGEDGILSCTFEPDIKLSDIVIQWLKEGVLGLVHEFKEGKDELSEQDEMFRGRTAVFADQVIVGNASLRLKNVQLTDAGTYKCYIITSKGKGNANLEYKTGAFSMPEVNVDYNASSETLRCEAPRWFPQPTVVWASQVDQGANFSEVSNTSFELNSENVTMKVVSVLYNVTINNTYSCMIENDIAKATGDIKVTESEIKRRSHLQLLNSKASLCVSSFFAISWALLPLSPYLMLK
Nature of the test: flow cytometry, SK-BR-3 cells.

Test [8] has as its target T5, human B7-H4-Fc. Nature of the test: ELISA on coated hB7-H4-Fc. The procedure: as §1
The target in test [9] is T2, hB7-H4 (soluble human B7-H4, construct …). Put plainly: ELISA, hB7-H4. The method, boiled down: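 Following overnight 4° C coating with about 1-2 μg/ml B7-H4-Fc or his-tagged protein and 3% PBS+milk blocking, antibody dilution series bind 1-1.5 h at RT. HRP anti-hFab plus TMB yields OD450, from which EC50 is derived.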
The target of another test is T8, mouse B7-H4-his (mouse, UniProt Q7TSP5 25-257).
T8 construct: also called mB7-H4-his; mB7-H4-His; not shown: his tag
T8 sequence: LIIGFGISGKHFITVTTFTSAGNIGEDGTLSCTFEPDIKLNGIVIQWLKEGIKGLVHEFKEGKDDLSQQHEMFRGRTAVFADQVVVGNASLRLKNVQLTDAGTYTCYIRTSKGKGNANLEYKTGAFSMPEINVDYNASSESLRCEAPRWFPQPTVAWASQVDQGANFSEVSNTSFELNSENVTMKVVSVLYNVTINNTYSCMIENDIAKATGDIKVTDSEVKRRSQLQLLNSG
Nature of the test: ELISA on coated mB7-H4-his. The procedure: as §1

Test [10] concerns the target T9, IgC domain of mouse B7-H4-Fc (mouse; human).
T9 construct: also called mB7-H4 IgC domain
Nature of the test: ELISA, coated mB7-H4 IgC domain.

Test [11] has as its target T10, mouse B7-H4 expressed on cells (mouse, UniProt Q7TSP5 25-257).
T10 construct: also called cellular mB7-H4; mB7-H4/CT26
T10 sequence: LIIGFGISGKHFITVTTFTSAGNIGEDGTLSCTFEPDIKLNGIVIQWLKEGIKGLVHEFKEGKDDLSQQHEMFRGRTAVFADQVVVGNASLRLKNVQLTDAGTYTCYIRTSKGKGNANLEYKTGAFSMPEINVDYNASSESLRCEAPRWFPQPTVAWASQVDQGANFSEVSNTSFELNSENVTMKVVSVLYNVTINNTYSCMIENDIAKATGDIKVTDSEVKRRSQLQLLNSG
Put plainly: flow cytometry, mB7-H4/CT26 cells.

The next test deals with T11, mouse B7-H4-Fc (mouse; human).
T11 construct: also called mB7-H4-Fc; mB7-H4-hFc
T11 sequence (chain, as listed by the source): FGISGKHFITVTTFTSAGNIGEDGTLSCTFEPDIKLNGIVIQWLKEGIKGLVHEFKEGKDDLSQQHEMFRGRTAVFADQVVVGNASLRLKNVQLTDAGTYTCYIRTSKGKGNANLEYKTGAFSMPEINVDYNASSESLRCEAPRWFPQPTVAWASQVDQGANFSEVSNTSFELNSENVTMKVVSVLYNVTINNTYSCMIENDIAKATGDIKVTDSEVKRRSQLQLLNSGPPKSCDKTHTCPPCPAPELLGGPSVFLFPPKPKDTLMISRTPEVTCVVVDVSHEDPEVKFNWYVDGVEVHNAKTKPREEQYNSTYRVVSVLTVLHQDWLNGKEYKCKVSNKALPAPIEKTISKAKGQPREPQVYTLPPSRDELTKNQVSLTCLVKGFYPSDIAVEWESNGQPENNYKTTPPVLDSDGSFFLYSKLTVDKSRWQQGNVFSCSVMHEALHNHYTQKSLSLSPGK
Put plainly: ELISA on coated mB7-H4-Fc. The procedure:
as §1

Test [12] has as its target T6, human B7-H4-his. Nature of the test: ELISA on coated hB7-H4-his. The procedure:
as §1

The target of test [13] is T12, IgV domain of human B7-H4-Fc (human).
T12 construct: also called hB7-H4 IgV domain
T12 sequence (chain, as listed by the source): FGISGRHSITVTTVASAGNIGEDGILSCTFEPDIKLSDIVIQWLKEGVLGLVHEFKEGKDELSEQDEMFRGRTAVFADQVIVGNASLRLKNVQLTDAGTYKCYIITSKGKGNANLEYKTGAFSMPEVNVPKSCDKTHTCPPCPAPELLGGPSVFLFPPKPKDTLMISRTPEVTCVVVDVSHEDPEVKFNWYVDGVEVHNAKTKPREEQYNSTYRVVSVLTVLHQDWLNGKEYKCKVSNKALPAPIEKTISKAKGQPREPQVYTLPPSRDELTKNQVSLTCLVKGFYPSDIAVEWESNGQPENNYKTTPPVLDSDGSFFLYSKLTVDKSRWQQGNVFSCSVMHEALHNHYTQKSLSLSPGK
Nature of the test: ELISA on coated IgV domain of hB7-H4.

Test [14] has as its target T1, mB7-H4 (soluble mouse B7-H4, construct …). Put plainly: SPR (Biacore); values equal to Table 11.

T9 sequence (chain, as listed by the source): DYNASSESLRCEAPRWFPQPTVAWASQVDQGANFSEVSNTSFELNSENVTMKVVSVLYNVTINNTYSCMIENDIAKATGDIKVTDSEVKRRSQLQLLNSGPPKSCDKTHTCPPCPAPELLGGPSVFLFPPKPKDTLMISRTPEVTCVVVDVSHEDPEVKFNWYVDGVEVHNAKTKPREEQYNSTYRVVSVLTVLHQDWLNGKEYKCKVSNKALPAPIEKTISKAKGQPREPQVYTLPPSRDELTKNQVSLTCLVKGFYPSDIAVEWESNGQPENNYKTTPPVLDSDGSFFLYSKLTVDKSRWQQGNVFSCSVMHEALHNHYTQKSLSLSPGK

B1: 39A11/57G8 (antibody, human IgG1, V domains shown)
VH: EVQLLESGGGLVQPGGSLRLSCAASGFTFSSYGMHWVRQAPGKGLEWVASISSSSGYIYYADSVKGRFTISRDNSKNTLYLQMNSLRAEDTAVYYCARASSGMDVWGQGTTVTVSS
VL: DIQMTQSPSSLSASVGDRVTITCRASQSIRSYLNWYQQKPGKAPKLLIYYASSLQSGVPSRFSGSGSGTDFTLTISSLQPEDFATYYCQQYYSTPLTFGQGTKVEIK
notes: 39A11 VH with 57G8 VL
Turning to B1, the concentration giving a half-maximal response (EC50) is 0.051 nM in [1], 2.82 nM in [7], 0.06 nM in test [9] and 7.82 nM in [11]. Also, the Kd in test [2] is 0.152 nM; with human B7-H4-Fc [5], 0.107 nM; with human B7-H4-his [6], 0.0355 nM; in [14] it was 0.152 nM. For the same molecule, the “EC50 (read off the curve)” value in test [3] is around 0.07 nM; in the test with human B7-H4-Fc [8] it was around 0.08 nM; in the test with mouse B7-H4-his, around 0.1 nM; in the test with mouse B7-H4-Fc, around 0.08 nM; with human B7-H4-his [12], around 0.1 nM; in [13], around 0.1 nM. The binding result in test [4] and in test [10] was “no binding (tested: log 1 nM (10 nM))” each time.

B2: Control antibody 1 (antibody 20502 described in US20190085080A1) (antibody, V domains shown)
VH: QLQLQESGPGLVKPSETLSLTCTVSGGSIKSGSYYWGWIRQPPGKGLEWIGNIYYSGSTYYNPSLRSRVTISVDTSKNQFSLKLSSVTAADTAVYYCAREGSYPNQFDPWGQGTLVTVSS
VL: EIVMTQSPATLSVSPGERATLSCRASQSVSSNLAWYQQKPGQAPRLLIYGASTRATGIPARFSGSGSGTEFTLTISSLQSEDFAVYYCQQYHSFPFTFGGGTKVEIK
notes: also called (+) control Ab1; (+) Ab1
As to B2, the EC50 stood at 0.139 nM in test [1], 2.64 nM in test [7], 0.106 nM in test [9] and 2.06 nM in test [11]. Also, the dissociation constant (Kd) in [2] stood at 0.499 nM; in the test with human B7-H4-Fc [5] it was 0.45 nM; in the test with human B7-H4-his [6] it was 0.11 nM; in test [14] it was 0.499 nM. Also, the concentration for a half-maximal effect (EC50 (read off the curve)) in test [3] is around 0.4 nM; with human B7-H4-Fc [8] it was around 0.1 nM; in the test with mouse B7-H4-his, around 0.2 nM; in the test with mouse B7-H4-Fc, around 0.1 nM; with human B7-H4-his [12] it was around 0.2 nM; in test [13] it was around 0.2 nM. In addition, the binding result in [4] and in [10] was “no binding (tested: log 1 nM (10 nM))” each time.

As a reminder, the EC50 is the concentration that produces a half-maximal response. A lower EC50 goes with a more potent agent. The Kd is the equilibrium constant for the complex coming apart. By EC50 (read off the curve) is commonly meant the concentration that produces a half-maximal response.
